These results are taken from paper PMC2488374, “Study of a Synthetic Human Olfactory Receptor 17-4: Expression and Purification from an Inducible Mammalian Cell Line” (PLoS ONE, 2008).

The series concerns the molecule itself. Description: SEC; immunoaffinity-purified hOR17-4 at 0.75 mg/ml on HiLoad 16/60 Superdex 200 in PBS + 0.2% w/v fos-choline-14, 1 ml/min; peak fractions analysed by SDS-PAGE and SYPRO-Ruby staining. In general terms: In gel filtration, larger molecules generally elute earlier.

B1: human olfactory receptor 17-4 with C-terminal GlyGly linker and rho1D4 tag (hOR17-4-GlyGly-rho1D4) (receptor, UniProt P34982 1-312, looked up)
chain: MDGGNQSEGSEFLLLGMSESPEQQRILFWMFLSMYLVTVVGNVLIILAISSDSRLHTPVYFFLANLSFTDLFFVTNTIPKMLVNLQSHNKAISYAGCLTQLYFLVSLVALDNLILAVMAYDRYVAICCPLHYTTAMSPKLCILLLSLCWVLSVLYGLIHTLLMTRVTFCGSRKIHYIFCEMYVLLRMACSNIQINHTVLIATGCFIFLIPFGFVIISYVLIIRAILRIPSVSKKYKAFSTCASHLGAVSLFYGTLCMVYLKPLHTYSVKDSVATVMYAVVTPMMNPFIYSLRNKDMHGALGRLLDKHFKRLT
notes: human olfactory receptor 17-4 (OR1D2), wild type, 312 amino acids; with GlyGly linker and rho1D4 tag the construct has 323 amino acids; Synthetic, human codon-optimised gene in pcDNA4/To; also called OR1D2; hOR17-4-rho
On to B1, for which the “stoichiometry N” value amounted to 2.

Broadly, the stoichiometry N is the number of molecules, sites or subunits per partner or assembly.
